In paper PMC2958364 (Journal of molecular biology, 2008):

What was measured:
[1] = molecular target: αvβ3 integrin, immobilized (Homo sapiens (assumed), UniProt P06756;P05106); assay: ELISA
[2] = molecular target: αvβ6 integrin, purified from CHO αvβ6 cells (Homo sapiens (assumed), recombinant …, UniProt P06756;P18564); assay: ELISA
[3] = molecular target: αvβ6 integrin on A375Pβ6 cells (Homo sapiens (A375P alpha-V, human …, UniProt P06756;P18564)); assay: flow cytometry on cells
Sequence of αvβ6 integrin on A375Pβ6 cells (Homo sapiens (P06756 31-1048, stated change not applied, chain 1 of 2): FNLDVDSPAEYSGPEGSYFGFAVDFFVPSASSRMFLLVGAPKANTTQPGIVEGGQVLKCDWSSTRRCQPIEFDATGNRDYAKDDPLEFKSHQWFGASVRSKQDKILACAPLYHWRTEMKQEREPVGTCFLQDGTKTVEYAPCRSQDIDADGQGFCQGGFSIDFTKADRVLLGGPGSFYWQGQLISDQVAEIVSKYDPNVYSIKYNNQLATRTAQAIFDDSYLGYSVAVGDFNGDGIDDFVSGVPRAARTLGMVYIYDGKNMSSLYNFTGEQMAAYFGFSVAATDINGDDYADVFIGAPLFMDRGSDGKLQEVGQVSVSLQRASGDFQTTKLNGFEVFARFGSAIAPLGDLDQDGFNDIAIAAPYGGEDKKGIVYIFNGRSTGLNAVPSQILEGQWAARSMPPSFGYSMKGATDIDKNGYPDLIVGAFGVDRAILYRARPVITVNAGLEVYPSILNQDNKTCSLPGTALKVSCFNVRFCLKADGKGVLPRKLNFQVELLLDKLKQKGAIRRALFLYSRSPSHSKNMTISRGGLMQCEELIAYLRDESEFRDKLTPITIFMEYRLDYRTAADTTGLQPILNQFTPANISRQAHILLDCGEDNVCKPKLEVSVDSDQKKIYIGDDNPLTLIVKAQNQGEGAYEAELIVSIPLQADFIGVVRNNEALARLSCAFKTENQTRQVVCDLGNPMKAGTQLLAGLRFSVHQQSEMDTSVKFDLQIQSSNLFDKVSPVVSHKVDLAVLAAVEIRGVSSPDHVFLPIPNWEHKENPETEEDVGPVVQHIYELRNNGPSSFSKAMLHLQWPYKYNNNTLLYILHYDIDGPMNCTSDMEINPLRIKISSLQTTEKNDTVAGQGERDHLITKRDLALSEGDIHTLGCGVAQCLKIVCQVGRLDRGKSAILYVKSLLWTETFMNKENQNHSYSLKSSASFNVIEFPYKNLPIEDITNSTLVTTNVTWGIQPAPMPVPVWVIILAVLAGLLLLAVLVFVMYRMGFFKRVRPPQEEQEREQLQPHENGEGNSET
Sequence of αvβ6 integrin on A375Pβ6 cells (Homo sapiens (P18564 22-788, chain 2 of 2): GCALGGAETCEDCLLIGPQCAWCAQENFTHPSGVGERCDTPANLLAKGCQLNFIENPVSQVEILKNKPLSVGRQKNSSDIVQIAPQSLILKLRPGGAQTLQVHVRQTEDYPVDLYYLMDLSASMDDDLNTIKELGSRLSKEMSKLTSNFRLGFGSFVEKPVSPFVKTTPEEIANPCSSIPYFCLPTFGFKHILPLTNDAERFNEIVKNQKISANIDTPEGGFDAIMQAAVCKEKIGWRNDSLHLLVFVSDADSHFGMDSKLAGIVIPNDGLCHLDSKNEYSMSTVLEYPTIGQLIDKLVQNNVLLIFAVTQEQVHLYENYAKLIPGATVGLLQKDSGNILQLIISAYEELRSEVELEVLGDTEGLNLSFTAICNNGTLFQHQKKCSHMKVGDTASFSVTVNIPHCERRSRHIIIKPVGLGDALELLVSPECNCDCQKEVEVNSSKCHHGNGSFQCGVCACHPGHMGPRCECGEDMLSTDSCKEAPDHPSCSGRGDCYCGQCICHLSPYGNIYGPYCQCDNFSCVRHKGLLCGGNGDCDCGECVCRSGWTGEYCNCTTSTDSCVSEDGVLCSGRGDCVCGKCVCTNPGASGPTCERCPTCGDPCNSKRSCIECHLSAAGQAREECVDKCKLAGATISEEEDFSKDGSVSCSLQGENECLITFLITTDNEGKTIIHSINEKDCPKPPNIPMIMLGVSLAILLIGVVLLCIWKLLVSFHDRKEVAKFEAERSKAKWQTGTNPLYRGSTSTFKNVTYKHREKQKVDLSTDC

Sequence of αvβ6 integrin, purified from CHO αvβ6 cells (P06756 31-1048, chain 1 of 2): as the sequence (P06756 31-1048, stated change not applied, chain 1 of 2) above
Sequence of αvβ6 integrin, purified from CHO αvβ6 cells (P18564 22-788, chain 2 of 2): as the sequence (P18564 22-788, chain 2 of 2) above
Sequence of αvβ3 integrin, immobilized (P06756 31-1048, chain 1 of 2): as the sequence (P06756 31-1048, stated change not applied, chain 1 of 2) above
Sequence of αvβ3 integrin, immobilized (P05106 27-718, chain 2 of 2): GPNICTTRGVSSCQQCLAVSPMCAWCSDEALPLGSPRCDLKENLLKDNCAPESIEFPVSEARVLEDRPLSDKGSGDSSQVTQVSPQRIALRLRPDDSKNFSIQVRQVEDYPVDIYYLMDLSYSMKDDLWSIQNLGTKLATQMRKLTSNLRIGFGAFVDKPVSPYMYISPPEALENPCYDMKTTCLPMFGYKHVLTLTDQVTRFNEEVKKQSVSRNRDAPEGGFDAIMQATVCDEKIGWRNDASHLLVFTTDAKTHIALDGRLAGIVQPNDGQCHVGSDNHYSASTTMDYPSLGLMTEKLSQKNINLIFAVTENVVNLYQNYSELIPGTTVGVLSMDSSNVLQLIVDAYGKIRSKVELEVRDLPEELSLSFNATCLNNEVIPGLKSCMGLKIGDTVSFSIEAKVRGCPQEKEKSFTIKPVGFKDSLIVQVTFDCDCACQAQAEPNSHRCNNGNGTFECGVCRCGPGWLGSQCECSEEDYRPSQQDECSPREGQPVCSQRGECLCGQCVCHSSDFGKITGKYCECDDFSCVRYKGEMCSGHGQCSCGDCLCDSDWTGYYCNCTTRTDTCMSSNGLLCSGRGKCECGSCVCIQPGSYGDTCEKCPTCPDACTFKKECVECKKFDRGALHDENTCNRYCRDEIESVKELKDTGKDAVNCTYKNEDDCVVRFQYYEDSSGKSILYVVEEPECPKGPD

B1: MFE-23 (scFv, V domains shown)
VH: QVKLQQSGAELVRSGTSVKLSCTASGFNIKDSYMHWLRQGPEQGLEWIGWIDPENGDTEYAPKFQGKATFTTDTSSNTAYLQLSSLTSEDTAVYYCNEGTPTGPYYFDYWGQGTTVTVSS
VL: ENVLTQSPAIMSASPGEKVTITCSASSSVSYMHWFQQKPGTSPKLWIYSTSNLASGVPARFSGSGSGTSYSLTISRMEAEDAATYYCQQRSSYPLTFGAGTKLELK
[1]
  binding result: no binding (tested: 5 μg/ml)
[2]
  binding result: no binding (tested: 5 μg/ml)
[3]
  binding result: no binding (tested: 50 μg/ml)
